T1: Human DLL3 (R&D Systems) (human, UniProt Q9NYJ7 27-492, limits assumed)
T1 sequence (looked up): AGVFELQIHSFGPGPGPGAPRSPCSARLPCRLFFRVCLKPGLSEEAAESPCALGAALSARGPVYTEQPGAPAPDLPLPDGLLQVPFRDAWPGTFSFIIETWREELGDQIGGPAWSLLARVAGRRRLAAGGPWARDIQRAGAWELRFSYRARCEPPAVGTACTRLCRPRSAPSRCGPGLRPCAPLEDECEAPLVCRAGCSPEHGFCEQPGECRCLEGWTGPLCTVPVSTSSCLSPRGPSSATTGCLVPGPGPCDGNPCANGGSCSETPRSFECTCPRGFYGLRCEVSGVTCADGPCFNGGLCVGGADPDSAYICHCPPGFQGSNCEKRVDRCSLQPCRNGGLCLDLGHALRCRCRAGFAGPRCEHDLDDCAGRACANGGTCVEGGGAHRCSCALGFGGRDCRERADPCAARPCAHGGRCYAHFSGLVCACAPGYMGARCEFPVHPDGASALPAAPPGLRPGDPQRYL

T2: DLL3 on SHP77 cells (UniProt Q9NYJ7 27-618, limits assumed)
T2 construct: whole, on cells; also called delta-like ligand 3
T2 sequence (looked up): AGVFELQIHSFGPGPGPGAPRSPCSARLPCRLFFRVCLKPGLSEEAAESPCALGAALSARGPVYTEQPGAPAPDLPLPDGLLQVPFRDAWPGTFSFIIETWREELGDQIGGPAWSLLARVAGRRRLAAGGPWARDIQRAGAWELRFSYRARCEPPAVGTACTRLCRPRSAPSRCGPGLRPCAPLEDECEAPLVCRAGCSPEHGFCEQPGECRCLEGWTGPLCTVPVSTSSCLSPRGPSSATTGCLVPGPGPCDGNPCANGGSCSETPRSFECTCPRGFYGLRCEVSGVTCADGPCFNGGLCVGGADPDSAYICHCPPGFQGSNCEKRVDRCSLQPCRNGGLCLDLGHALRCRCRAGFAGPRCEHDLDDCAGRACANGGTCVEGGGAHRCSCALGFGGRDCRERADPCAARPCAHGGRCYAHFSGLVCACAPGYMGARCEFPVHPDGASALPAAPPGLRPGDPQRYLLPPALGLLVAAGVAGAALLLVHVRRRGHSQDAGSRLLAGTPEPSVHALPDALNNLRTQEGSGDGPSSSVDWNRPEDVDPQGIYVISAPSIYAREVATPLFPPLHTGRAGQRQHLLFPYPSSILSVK

B1: SC16.15 DLL3HL×CD3HL (bispecific antibody)
chain: QVQLQQSGAELAKPGASVKMSCKASGYTFTRYWIHWIKQRPGQGLEWIGYINPTTVYTEFNQNFKDKATLTADKSSTTASMQLSSLTSEDSAVYYCARGGSNFFDYWGQGTTLTVSSGGGGSGGGGSGGGGSDIQMTQSPASLAASVGETVAITCRASENIYYNLAWYQQKQGKSPQLLIYTANSLEDGVPSRFSGSGSGTQYSLKINSMQPEDSATYFCKQAYDVPPTFGGGTKLEIKGGGGSEVQLVESGGGLVQPGKSLKLSCEASGFTFSGYGMHWVRQAPGRGLESVAYITSSSINIKYADAVKGRFTVSRDNAKNLLFLQMNILKSEDTAMYYCARFDWDKNYWGQGTMVTVSSGGGGSGGGGSGGGGSDIQMTQSPSSLPASLGDRVTINCQASQDISNYLNWYQQKPGKAPKLLIYYTNKLADGVPSRFSGSGSGRDSSFTISSLESEDIGSYYCQQYYNYPWTFGPGTKLEIKDYKDDDDK
notes: the leader is left out here; Tested as HEK293T supernatant; also called SC16.15 DLL3HLxCD3HL BiTE
B2: SC16.56 DLL3HL×CD3HL (bispecific antibody)
chain: QIQLVQSGPELKKPGETVKISCKASGYTFTNYGMNWVKQAPGKGLKWMAWINTYTGEPTYADDFKGRFAFSLETSASTASLQIINLKNEDTATYFCARIGDSSPSDYWGQGTTLTVSSGGGGSGGGGSGGGGSSIVMTQTPKFLLVSAGDRVTITCKASQSVSNDVVWYQQKPGQSPKLLIYYASNRYTGVPDRFAGSGYGTDFSFTISTVQAEDLAVYFCQQDYTSPWTFGGGTKLEIRGGGGSEVQLVESGGGLVQPGKSLKLSCEASGFTFSGYGMHWVRQAPGRGLESVAYITSSSINIKYADAVKGRFTVSRDNAKNLLFLQMNILKSEDTAMYYCARFDWDKNYWGQGTMVTVSSGGGGSGGGGSGGGGSDIQMTQSPSSLPASLGDRVTINCQASQDISNYLNWYQQKPGKAPKLLIYYTNKLADGVPSRFSGSGSGRDSSFTISSLESEDIGSYYCQQYYNYPWTFGPGTKLEIKDYKDDDDK
notes: the leader is left out here; Tested as HEK293T supernatant; also called SC16.56 DLL3HLxCD3HL BiTE
B3: SC16.15 DLL3LH×CD3HL (bispecific antibody)
chain: DIQMTQSPASLAASVGETVAITCRASENIYYNLAWYQQKQGKSPQLLIYTANSLEDGVPSRFSGSGSGTQYSLKINSMQPEDSATYFCKQAYDVPPTFGGGTKLEIKGGGGSGGGGSGGGGSQVQLQQSGAELAKPGASVKMSCKASGYTFTRYWIHWIKQRPGQGLEWIGYINPTTVYTEFNQNFKDKATLTADKSSTTASMQLSSLTSEDSAVYYCARGGSNFFDYWGQGTTLTVSSGGGGSEVQLVESGGGLVQPGKSLKLSCEASGFTFSGYGMHWVRQAPGRGLESVAYITSSSINIKYADAVKGRFTVSRDNAKNLLFLQMNILKSEDTAMYYCARFDWDKNYWGQGTMVTVSSGGGGSGGGGSGGGGSDIQMTQSPSSLPASLGDRVTINCQASQDISNYLNWYQQKPGKAPKLLIYYTNKLADGVPSRFSGSGSGRDSSFTISSLESEDIGSYYCQQYYNYPWTFGPGTKLEIKDYKDDDDK
notes: the leader is left out here; Tested as HEK293T supernatant; also called SC16.15 DLL3LHxCD3HL BiTE
B4: SC16.56 DLL3LH×CD3HL (bispecific antibody)
chain: SIVMTQTPKFLLVSAGDRVTITCKASQSVSNDVVWYQQKPGQSPKLLIYYASNRYTGVPDRFAGSGYGTDFSFTISTVQAEDLAVYFCQQDYTSPWTFGGGTKLEIRGGGGSGGGGSGGGGSQIQLVQSGPELKKPGETVKISCKASGYTFTNYGMNWVKQAPGKGLKWMAWINTYTGEPTYADDFKGRFAFSLETSASTASLQIINLKNEDTATYFCARIGDSSPSDYWGQGTTLTVSSGGGGSEVQLVESGGGLVQPGKSLKLSCEASGFTFSGYGMHWVRQAPGRGLESVAYITSSSINIKYADAVKGRFTVSRDNAKNLLFLQMNILKSEDTAMYYCARFDWDKNYWGQGTMVTVSSGGGGSGGGGSGGGGSDIQMTQSPSSLPASLGDRVTINCQASQDISNYLNWYQQKPGKAPKLLIYYTNKLADGVPSRFSGSGSGRDSSFTISSLESEDIGSYYCQQYYNYPWTFGPGTKLEIKDYKDDDDK
notes: the leader is left out here; Tested as HEK293T supernatant; also called SC16.56 DLL3LHxCD3HL BiTE
B5: SC16.34 DLL3HL×CD3HL (bispecific antibody)
chain: QIQLVQSGPELKRPGETVKISCKASGYTFTNYGMNWVKQAPGKGLKWMGWINTYTGDPTYADDFKGRFAFSLETSASTAYLQINNLKNEDTATYFCARIGGNSPSDYWGQGTSLTVSSGGGGSGGGGSGGGGSSIVMTQTPKFLLVSAGDRVTITCKASQSVSNDVAWYQQKPGQSPKLLIYYASNRYSGVPDRFTGSGYGTDFTFTISTVQAEDLAVYFCQQDYSSPWTFGGGTKLEIKGGGGSEVQLVESGGGLVQPGKSLKLSCEASGFTFSGYGMHWVRQAPGRGLESVAYITSSSINIKYADAVKGRFTVSRDNAKNLLFLQMNILKSEDTAMYYCARFDWDKNYWGQGTMVTVSSGGGGSGGGGSGGGGSDIQMTQSPSSLPASLGDRVTINCQASQDISNYLNWYQQKPGKAPKLLIYYTNKLADGVPSRFSGSGSGRDSSFTISSLESEDIGSYYCQQYYNYPWTFGPGTKLEIKDYKDDDDK
notes: the leader is left out here; Tested as HEK293T supernatant; also called SC16.34 DLL3HLxCD3HL BiTE
B6: SC16.34 DLL3LH×CD3HL (bispecific antibody)
chain: SIVMTQTPKFLLVSAGDRVTITCKASQSVSNDVAWYQQKPGQSPKLLIYYASNRYSGVPDRFTGSGYGTDFTFTISTVQAEDLAVYFCQQDYSSPWTFGGGTKLEIKGGGGSGGGGSGGGGSQIQLVQSGPELKRPGETVKISCKASGYTFTNYGMNWVKQAPGKGLKWMGWINTYTGDPTYADDFKGRFAFSLETSASTAYLQINNLKNEDTATYFCARIGGNSPSDYWGQGTSLTVSSGGGGSEVQLVESGGGLVQPGKSLKLSCEASGFTFSGYGMHWVRQAPGRGLESVAYITSSSINIKYADAVKGRFTVSRDNAKNLLFLQMNILKSEDTAMYYCARFDWDKNYWGQGTMVTVSSGGGGSGGGGSGGGGSDIQMTQSPSSLPASLGDRVTINCQASQDISNYLNWYQQKPGKAPKLLIYYTNKLADGVPSRFSGSGSGRDSSFTISSLESEDIGSYYCQQYYNYPWTFGPGTKLEIKDYKDDDDK
notes: the leader is left out here; also called SC16.34 DLL3LHxCD3HL BiTE

Experiments:
Human DLL3 (R&D Systems) [1] = target: T1, Human DLL3 (R&D Systems); test: bridging ELISA (human DLL3 coated, CD3e-Fc detection) with engagers purified on ANTI-FLAG M2 Affinity Gel
Experimental: (§1) The expressed DLL3×CD3 bispecific T-cell engagers also were evaluated for binding to DLL3 and to CD3 with an ELISA. This ELISA was developed to detect correctly folded DLL3×CD3 bispecific T-cell engager binding to DLL3 and CD3 in the same assay. Human DLL3 (R&D Systems) was coated overnight at 4° C. on a high protein-binding 96-well plate, at a concentration of 1 ug/ml. The wells then were washed three times with PBS 0.05% Tween-20, and the wells were blocked with ELISA blocking buffer for 1 hour at room temperature. The wells then were washed three times with PBS 0.05% Tween-20. HEK293T cell culture supernatants, containing the DLL3×CD3 bispecific T-cell engagers, were added to the wells and incubated for 2 hours at room temperature. The wells were washed three times with PBS 0.05% Tween-20, and human IgG Fc conjugated CD3e was added to the wells (Acro Biosystems), and incubated for one hour at room temperature. The wells again were washed three times with PBS 0.05% Tween-20, and horseradish peroxidase (HRP)-conjugated anti-human antibody was added for a 1 hour incubation. The wells were then washed three times with PBS 0.05% Tween-20, and detection reagent (3,3′,5,5′-tetramethylbenzidine (TMB), Thermo Fisher Scientific) was added to the wells. The enzymatic reaction was stopped with sulfuric acid (BioLegend), and the optical densities were read at 450 nm.
The table below provides the results of this ELISA, shown as the absorbance at 450 nm. All of the SC16.56 DLL3LH×CD3HL, SC16.34 DLL3HL×CD3HL, and SC16.34 DLL3LH×CD3HL BiTE antibodies were detected, showing that these BiTEs antibodies are fully functional. […] In a separate experiment, the bispecific T-cell engagers were purified using ANTI-FLAG M2 Affinity Gel (Sigma) and run on this ELISA. SC16.34 DLL3LH×CD3HL was the only purified BiTE to show ELISA signal above background.

Human DLL3 (R&D Systems) [2] = target: T1, Human DLL3 (R&D Systems); test: bridging ELISA: human DLL3 coated at 1 ug/ml, HEK293T supernatant, detection by human IgG Fc conjugated CD3e + anti-human-HRP (signal needs binding to both DLL3 and CD3e); untransfected 0.010
Experimental: as §1

DLL3 on SHP77 cells [3] = target: T2, DLL3 on SHP77 cells; test: flow cytometry on SHP77 cells, concentrated HEK supernatant, Protein L biotin + Streptavidin APC; percent APC positive cells
Experimental: (§2) 500,000 SHP77 cells were seeded in wells of a V-bottom 96-well plate. The cells were washed once with PBS+2% FBS by centrifugation at 1300 RPM for 3 minutes. The cells were resuspended in 50 uL PBS+2% FBS containing concentrated HEK supernatant corresponding to either untransfected cells or cells transfected with a BiTE. After 30 minutes, the cells were washed twice with PBS+2% FBS by centrifugation at 1300 RPM for 3 minutes. The cells were then resuspended in 50 uL PBS+2% FBS containing either anti-Flag biotin (Sigma) at 1:100 dilution or Protein L biotin (Genscript) at 1:200 dilution, and incubated on ice for 30 minutes. The cells were washed twice with PBS+2% FBS by centrifugation at 1300 RPM for 3 minutes. Subsequently, the cells were stained with Streptavidin APC (Biolegend) at 1:200 dilution and incubated on ice for 30 minutes in the dark.
(§3) The cells were washed twice with PBS+2% FBS by centrifugation at 1300 RPM for 3 minutes and resuspended in DAPI diluted 1:6000 in PBS+2% FBS. Flow cytometry data were acquired using the ACEA NovoCyte® flow cytometer (ACEA Biosciences, Inc.), and analyzed using the FlowJo™ software (Tree Star, Inc.).

DLL3 on SHP77 cells [4] = target: T2, DLL3 on SHP77 cells; test: flow cytometry on SHP77 cells, concentrated HEK supernatant, anti-Flag biotin + Streptavidin APC; percent APC positive cells
Experimental: as §2, §3

Binder | binding result (Human DLL3 (R&D Systems) [1]) | Absorbance at 450 nm (Human DLL3 (R&D Systems) [2]) | % Binding to SHP77 Detected by Protein L (DLL3 on SHP77 cells [3]) [%] | % Binding to SHP77 Detected by anti-Flag (DLL3 on SHP77 cells [4]) [%]
B1 | no binding | 0.002 absorbance (450 nm) |  | 
B2 | no binding | 0.007 absorbance (450 nm) |  | 
B3 | no binding | 0.001 absorbance (450 nm) |  | 
B4 |  | 0.175 absorbance (450 nm) | 36.4 | 20.9
B5 |  | 0.253 absorbance (450 nm) | 36.6 | 19.6
B6 |  | 1.46 absorbance (450 nm) | 36.4 | 20.1

Reference: patent US20240293478A1 (ACTYM THERAPEUTICS, published 2024)
